{
  "source": "patent US20230372552A1",
  "about": "“CONJUGATE OR ITS SALT COMPRISING A GASTRIN-RELEASING PEPTIDE RECEPTOR ANTAGONIST AND USES THEREOF” (ORANO MED, priority 2020, published 2023)",
  "key": {"[1]": {"experiment": "^203Pb-conjugate biodistribution study in tumor-free immunocompetent mice", "experimental": "After that, the mice were divided in 6 groups of 10, denoted as groups A, B, C, D, E and F respectively, each comprising 5 male and 5 female.\nThe mice of group A were sacrificed at 5 min post-dose injection; the mice of group B were sacrificed at 30 min post-dose injection; the mice of group C were sacrificed at 1 hour post-dose injection; the mice of group D were sacrificed at 4 hours post-dose injection whereas the mice of group E were sacrificed at 24 hours post-dose injection.\nThe mice of group F were placed in metabolic cages and their urinary and fecal excretions were collected at 4 hours, 24 hours and 48 hours post-dose injection; they were sacrificed at 48 hours post-dose injection. […]\nThe tubes were counted for two min. A standard consisting of 5 μL of the solution injected to the mice was also counted for each group of mice. […]\nThe excretions of the mice of group F were also counted.\nThe percent injected dose per gram, noted as % ID/g, was calculated for each organ collected (mean±standard deviation) whilst the percent injected dose, noted as % ID, was calculated for the excretions of the mice of group F (mean±standard deviation)."}, "[2]": {"experiment": "Comparative biodistribution, ACMP linker, tumor-free immunocompetent mice", "type": "in vivo, immunocompetent CD1 female mice", "details": "4 hours post-dose injection", "procedure": "The study was aimed at assessing the biodistribution […] conjugate of the invention in that it comprises a linker constituted by a 4-amino-(1-carboxymethyl)piperidinyl group, of formula: […]\n5 immunocompetent CD1 female mice, 7-8 weeks old, were injected intravenously with one ^212Pb-ACMP-conjugate dose.\nThe mice were sacrificed at 4 hour post-dose injection.\n(§1) The tubes were counted for two min. Standards consisting of 5 μL of the solutions injected to the mice were also counted. The background was automatically subtracted from the counts. The standards were also used for decay correction."}, "[3]": {"tested_on": "subcutaneous PC-3 tumors", "experiment": "Comparative biodistribution, change of chelator (DOTAM vs DOTA), xenograft-bearing mice", "type": "in vivo, athymic nude mice", "details": "over the first 24 hours", "text": "The instant study was aimed at comparing the biodistribution of the conjugate of the invention, labelled with ^212Pb, in athymic nude mice bearing a human prostate cancer cell tumor with that of a conjugate also labelled with ^212Pb and only differing from the conjugate of the invention in that the chelator corresponds to DOTA (1,4,7,10-tetraazacyclododecane-1,4,7,10-tetraacetic acid) and is of formula:\n30 male athymic nude mice, 7-8 weeks old and weighting 27.90±1.9 g at study initiation, were injected subcutaneously, into the right flank, with 10^6 PC-3 human prostate cancer cells in 100 μL of RPMI-1640 medium/Matrigel™ (v/v: 1/1). The tumors were let grow until they reached 200-300 mm^3.\nEach mouse of groups A, B and C received intravenously one ^212Pb-DOTAM-conjugate dose whilst each mouse of groups […] received intravenously one ^212Pb-DOTA-conjugate dose.\nas §1"}, "[4]": {"tested_on": "subcutaneous PC-3 tumors", "experiment": "^212Pb-conjugate biodistribution study in xenograft-bearing mice (10 μCi per 14 ng)", "type": "in vivo, athymic nude mice", "procedure": "15 male athymic nude mice, 7-8 weeks old and weighting 27.74±1.87 g at study initiation, were injected subcutaneously, into the right flank, with 10^6 PC-3 human prostate cancer cells in 100 μL of RPMI-1640 medium/Matrigel™ (v/v: 1/1). […] Then each mouse received intravenously (into a tail vein) one ^212Pb-conjugate dose. […] The tubes were counted for two min. […] The background was automatically subtracted from the counts. The standard was also used for decay correction."}},
  "data": [
    {"smiles": "CC(C)C[C@H](NC(=O)C[C@H](O)[C@H](CC(C)C)NC(=O)[C@H](Cc1c[nH]cn1)NC(=O)CNC(=O)[C@@H](NC(=O)[C@H](C)NC(=O)[C@H](Cc1c[nH]c2ccccc12)NC(=O)[C@H](CCC(N)=O)NC(=O)[C@@H](Cc1ccccc1)NC(=O)CCNC(=O)CCNC(=O)CN1CCN(CC(N)=O)CCN(CC(N)=O)CCN(CC(N)=O)CC1)C(C)C)C(N)=O", "note": "[^203Pb-conjugate, metal not drawn]", "values": [
      {"measurement": "route of elimination (urinary, fecal excretion)", "setting": "[1]; excretions collected at 4, 24 and 48 hours post-dose", "result": "mainly eliminated by renal excretion"},
      {"measurement": "biodistribution profile", "setting": "[1]; male and female mice, 5 min to 48 hours, 10 μCi per 28 ng", "result": "safe biodistribution profile"}
    ]},
    {"smiles": "CC(C)C[C@H](NC(=O)C[C@H](O)[C@H](CC(C)C)NC(=O)[C@H](Cc1c[nH]cn1)NC(=O)CNC(=O)[C@@H](NC(=O)[C@H](C)NC(=O)[C@H](Cc1c[nH]c2ccccc12)NC(=O)[C@H](CCC(N)=O)NC(=O)[C@@H](Cc1ccccc1)NC(=O)CN1CCC(NC(=O)CN2CCN(CC(N)=O)CCN(CC(N)=O)CCN(CC(N)=O)CC2)CC1)C(C)C)C(N)=O", "note": "[^212Pb-ACMP-conjugate, metal not drawn]", "values": [
      {"measurement": "safety profile relative to the -β-Ala-β-Ala- linker conjugate", "setting": "[2]", "result": "significantly lower safety profile"},
      {"measurement": "uptake in kidneys relative to the -β-Ala-β-Ala- linker conjugate", "setting": "[2]; 10 μCi per 4.1 ng", "result": 5, "unit": "times"}
    ]},
    {"smiles": "CC(C)C[C@H](NC(=O)C[C@H](O)[C@H](CC(C)C)NC(=O)[C@H](Cc1c[nH]cn1)NC(=O)CNC(=O)[C@@H](NC(=O)[C@H](C)NC(=O)[C@H](Cc1c[nH]c2ccccc12)NC(=O)[C@H](CCC(N)=O)NC(=O)[C@@H](Cc1ccccc1)NC(=O)CCNC(=O)CCNC(=O)CN1CCN(CC(N)=O)CCN(CC(N)=O)CCN(CC(N)=O)CC1)C(C)C)C(N)=O", "note": "[^212Pb-conjugate, metal not drawn]", "values": [
      {"measurement": "tumor retention versus ^212Pb-DOTA-conjugate", "setting": "[3]", "result": "higher"},
      {"measurement": "tumor/blood ratio", "setting": "[4]; i.v., 10 μCi per 14 ng", "result": "high"},
      {"measurement": "clearance", "setting": "[4]; mouse, in vivo, iv", "result": "fast clearance"}
    ]}
  ]
}
